From PMC10709637, “Phospholipids are imported into mitochondria by VDAC, a dimeric beta barrel scramblase” (Nature Communications, 2023)
Values belong to the binder of their own block, whether it stands above or below them.

Key:
[1] = biological target: T1, C-terminal Twin-Strep-tagged yeast VDAC (Por1-TS) (S. cerevisiae), P04840; test: cross-linking; EGS cross-linking after reconstitution into LUVs (POPC/POPG) in 10 mM MOPS/KOH pH 7.0, 100 mM KCl; 16x mole excess of EGS, 20 °C, 40 min; SDS-PAGE immunoblot (anti-His for human VDAC, anti-VDAC1/Porin for yeast porin); details: remark: other sources report otherwise
T1 chain: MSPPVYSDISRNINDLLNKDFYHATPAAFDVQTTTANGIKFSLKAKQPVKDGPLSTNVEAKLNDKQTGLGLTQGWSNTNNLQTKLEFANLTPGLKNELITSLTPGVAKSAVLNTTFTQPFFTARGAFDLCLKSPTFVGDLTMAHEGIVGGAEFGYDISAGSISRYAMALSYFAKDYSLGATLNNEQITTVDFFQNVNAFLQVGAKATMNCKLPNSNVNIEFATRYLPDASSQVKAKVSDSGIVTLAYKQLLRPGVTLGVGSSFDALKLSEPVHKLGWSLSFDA

[2] = biological target: T2, human VDAC2 (Voltage Dependent Anion Channel 2), N-terminal hexahistidine tagged (human), P45880; test: vesicle occupancy statistics (Poisson analysis of the dithionite channel assay); different amounts of protein reconstituted into a fixed quantity of LUVs; fraction of vesicles with a channel against PPR*, one-phase exponential fit; MW 31 kDa, vesicle diameter 150 nm; details: remark: other sources report otherwise
T2 chain: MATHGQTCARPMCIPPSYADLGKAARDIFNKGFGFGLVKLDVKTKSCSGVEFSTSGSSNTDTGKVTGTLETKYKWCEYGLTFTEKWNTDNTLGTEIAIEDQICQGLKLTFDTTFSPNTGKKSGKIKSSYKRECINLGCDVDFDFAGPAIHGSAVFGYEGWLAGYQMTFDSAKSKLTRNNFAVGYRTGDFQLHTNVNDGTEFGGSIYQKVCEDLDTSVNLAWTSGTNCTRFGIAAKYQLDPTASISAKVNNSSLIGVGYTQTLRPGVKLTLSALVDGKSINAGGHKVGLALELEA

[3] = biological target: the molecule itself; test: cross-linking; EGS cross-linking after reconstitution into LUVs (POPC/POPG) in 10 mM MOPS/KOH pH 7.0, 100 mM KCl; 16x mole excess of EGS, 20 °C, 40 min; SDS-PAGE immunoblot (anti-His for human VDAC, anti-VDAC1/Porin for yeast porin)

stoichiometry N [1]: 2
B1: C-terminal Twin-Strep-tagged yeast VDAC (Por1-TS), P04840 1-283 (natural protein)
chain: T1 chain

stoichiometry N [2]: 10
B2: human VDAC2 (Voltage Dependent Anion Channel 2), N-terminal hexahistidine tagged, P45880 1-294 (natural protein)
chain: T2 chain

B3: human VDAC1 pentamutant VDAC1-5V (T60V, Y62V, E73V, T83V, S101V), N-terminal hexahistidine tagged (natural protein, UniProt P21796 1-283, looked up)
chain: MAVPPTYADLGKSARDVFTKGYGFGLIKLDLKTKSENGLEFTSSGSANTETTKVTGSLEVKVRWTEYGLTFTVKWNTDNTLGVEITVEDQLARGLKLTFDVSFSPNTGKKNAKIKTGYKREHINLGCDMDFDIAGPSIRGALVLGYEGWLAGYQMNFETAKSRVTQSNFAVGYKTDEFQLHTNVNDGTEFGGSIYQKVNKKLETAVNLAWTAGNSNTRFGIAAKYQIDPDACFSAKVNNSSLIGLGYTQTLKPGIKLTLSALLDGKNVNAGGHKLGLGLEFQA
notes: human VDAC1 with five substitutions to valine; pCold vector
binding result [3]: binds
